In patent publication US20090142345A1:

How the values were obtained:
[1] = biological target: human DDR1b protein (Discoidin Domain Receptor 1, isoform b) (human) (UniProt Q08345); assay: cell-based or functional assay
[2] = biological target: DDR1bDN protein (dominant negative type DDR1b not having kinase activity) (human) (UniProt Q08345); assay: cell-based or functional assay

cell protection inhibitory activity at 33 µg/mL, relative to the change induced by type IV collagen as 100%, HCT116 cells (Caspase-Glo 3/7 Assay) [1] [%] | cell protection inhibitory activity at 1 mg/mL, relative to the absorbance change induced by type IV collagen as 100%, DDR1FL-#117 cells [1] [%] | Substance | suppression of serum-removal-induced apoptosis by addition of type IV collagen in DDR1FL-#117 cells (Cell Death Detection ELISA) [1] [%] | suppression of serum-removal-induced apoptosis by addition of type IV collagen in DDR1bDN-#206 cells (Cell Death Detection ELISA) [2] [%]
0 | 1.7 | non-immunized rabbit IgG (Jackson Immunoresearch Company) (antibody) |  | 
 |  | type IV collagen (Sigma Company) (ligand) | 53 | 34
